Results taken from US20260098090A1.

Biological target: T1, IL-2Rbg on mouse splenocytes (NK cells, CD8+ T cells, Treg cells) (mouse) (UniProt P16297)
T1 sequence (looked up) 1: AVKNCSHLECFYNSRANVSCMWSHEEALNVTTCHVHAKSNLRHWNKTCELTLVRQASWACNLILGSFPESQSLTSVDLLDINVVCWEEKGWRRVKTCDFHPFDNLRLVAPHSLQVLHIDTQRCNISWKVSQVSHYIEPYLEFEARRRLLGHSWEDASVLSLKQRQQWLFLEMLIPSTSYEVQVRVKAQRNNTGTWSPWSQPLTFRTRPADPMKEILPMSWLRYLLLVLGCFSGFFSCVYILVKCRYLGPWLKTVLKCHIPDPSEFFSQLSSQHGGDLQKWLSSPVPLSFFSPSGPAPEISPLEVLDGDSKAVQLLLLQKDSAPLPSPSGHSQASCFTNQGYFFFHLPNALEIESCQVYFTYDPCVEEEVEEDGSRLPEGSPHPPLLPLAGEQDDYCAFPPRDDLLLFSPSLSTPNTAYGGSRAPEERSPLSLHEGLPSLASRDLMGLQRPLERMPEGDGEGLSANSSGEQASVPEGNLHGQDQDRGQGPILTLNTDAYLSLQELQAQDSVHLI
T1 sequence (looked up) 2: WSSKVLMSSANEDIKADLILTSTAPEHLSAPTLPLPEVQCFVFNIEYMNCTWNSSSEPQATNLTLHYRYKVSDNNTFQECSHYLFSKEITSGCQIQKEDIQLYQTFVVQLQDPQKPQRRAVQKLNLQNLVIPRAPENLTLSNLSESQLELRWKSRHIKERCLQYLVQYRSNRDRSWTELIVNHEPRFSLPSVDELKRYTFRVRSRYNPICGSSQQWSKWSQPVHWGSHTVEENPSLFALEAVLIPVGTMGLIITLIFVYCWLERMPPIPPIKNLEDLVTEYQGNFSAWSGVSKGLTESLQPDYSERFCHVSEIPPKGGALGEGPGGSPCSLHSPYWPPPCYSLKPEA
Assay: cell-based or functional assay

pSTAT5 staining of murine splenocytes, EC50 on CD8+ T cells: 26 nM | pSTAT5 staining of murine splenocytes, EC50 on NK cells: 8.6 nM | pSTAT5 staining of murine splenocytes, EC50 on Treg cells: 42.5 nM
B1: CTRL-mIL2v2 (protein, part only; not given: control antibody chains and linker, not shown: small tags and cut ends)
heavy, part: APTSSSTSSSTAEAQQQQQQQQQQQQHLEQLLMDLQELLSRMENYRNLKLPEMLTAKFALPKQATELKDLQCLEDELGPLRHVLDLTQSKSFQLEDAENFISNIRVTVVKLKGSDNTFECQFDDESATVVDFLRRWIAFAQSIISTSPQ
